From patent publication US20210061911A1 (MacroGenics, published 2021)

Legend:
[1] = target: T1, Cynomolgus CD123-His (cynomolgus monkey); assay: kinetic binding analysis, method not given
T1 construct: also called cynomolgus monkey CD123

[2] = target: T2, Human CD123-His (human, UniProt P26951 19-305); assay: kinetic binding analysis, method not given
T2 construct: also called interleukin 3 receptor alpha; IL-3Rα; not shown: His tag
T2 sequence (looked up): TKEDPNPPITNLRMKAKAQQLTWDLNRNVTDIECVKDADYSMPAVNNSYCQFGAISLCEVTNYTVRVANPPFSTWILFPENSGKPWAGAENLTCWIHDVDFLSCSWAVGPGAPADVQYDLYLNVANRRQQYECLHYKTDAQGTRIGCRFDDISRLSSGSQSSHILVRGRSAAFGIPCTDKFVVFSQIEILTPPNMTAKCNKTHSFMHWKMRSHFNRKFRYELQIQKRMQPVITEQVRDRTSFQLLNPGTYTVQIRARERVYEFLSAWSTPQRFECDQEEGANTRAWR

B1: DART-A, sequence-optimized CD123×CD3 bi-specific monovalent diabody (bispecific antibody)
chain 1: QAVVTQEPSLTVSPGGTVTLTCRSSTGAVTTSNYANWVQQKPGQAPRGLIGGTNKRAPWTPARFSGSLLGGKAALTITGAQAEDEADYYCALWYSNLWVFGGGTKLTVLGGGGSGGGGEVQLVQSGAELKKPGASVKVSCKASGYTFTDYYMKWVRQAPGQGLEWIGDIIPSNGATFYNQKFKGRVTITVDKSTSTAYMELSSLRSEDTAVYYCARSHLLRASWFAYWGQGTLVTVSSGGCGGGEVAALEKEVAALEKEVAALEKEVAALEK
chain 2: DFVMTQSPDSLAVSLGERVTMSCKSSQSLLNSGNQKNYLTWYQQKPGQPPKLLIYWASTRESGVPDRFSGSGSGTDFTLTISSLQAEDVAVYYCQNDYSYPYTFGQGTKLEIKGGGSGGGGEVQLVESGGGLVQPGGSLRLSCAASGFTFSTYAMNWVRQAPGKGLEWVGRIRSKYNNYATYYADSVKDRFTISRDDSKNSLYLQMNSLKTEDTAVYYCVRHGNFGNSYVSWFAYWGQGTLVTVSSGGCGGGKVAALKEKVAALKEKVAALKEKVAALKE
notes: no Fc; also called CD123×CD3 DART molecule
Q: Which results are given for B1?
A: kon [1]: 150000 M⁻¹ s⁻¹; kon [2]: 160000 M⁻¹ s⁻¹
